Laboratory results taken from the supplement of paper PMC9170038.

Tested on: MS2 coat protein
Assay: apparent KD of MS2 coat protein; designed switch direction (-1 OFF switch, 1 ON switch): -1; higher = weaker reporter binding
Summary of the method: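 The reported apparent KD is a per-design median over clusters, from curve fits of normalised cluster fluorescence. Protein titrations used SNAP-549-labelled MS2 coat protein, doubled from 0.7 or 1.5 nM to 3 µM, in Tris-HCl pH 7.5 buffer with KCl, MgCl2, BSA, DTT, tRNA and Tween-20, with no input, 200 uM small-molecule ligand, or an oligonucleotide input. The RNA switches were transcribed on Illumina chips by stalled E. coli RNA polymerase.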

[1] = input ligand: microRNA oligo, concentration not stated
[2] = Eterna round: R95, input ligand: microRNA oligo, concentration not stated
[3] = Eterna round: R95, input ligand: FMN 200 uM
[4] = Eterna round: R95, input ligand: none

Row | Sequence | apparent KD of MS2 coat protein (input ligand: FMN 200 uM) [nM] | apparent KD of MS2 coat protein [1] [nM] | apparent KD of MS2 coat protein (input ligand: none) [nM] | apparent KD of MS2 coat protein [2] [nM] | apparent KD of MS2 coat protein [3] [nM] | apparent KD of MS2 coat protein [4] [nM]
1 | ACAUGAGGAUCACCCAUGUGCACGUAAUGGCUCAUGUAGAGUGAGGAUAUGCGUGACGAACGAGCGCAGAAGGCACAAGACUGG [Deportation 16 - Jieux - Exclusion NG 3] (Eterna round: R96, puzzle: Exclusion NG 3) | 131 | 57.8 | 77.5 | – | – | –
2 | ACAUGAGGAUCACCCAUGUUCGGCUGGUCCGUUUCGGCUGUCGAGGAUAUAGUUCGGUGUCCGCGCUAGAAGGCGGGAGCCGGC [Aenatbe mod 63] (Eterna round: R96, puzzle: Exclusion NG 3) | 153 | 54.5 | 78.5 | – | – | –
3 | ACAUGUAAUGCAGGAUAUCGGACACAUGAGGAUCACCCAUGUGACCAGAGGUAUUGCUAAGAGUCUGAGAAGGGUAUGUACAUG [Ex NG2 #50] (Eterna round: R96, puzzle: Exclusion NG 2) | 20 | 17.5 | 19.1 | – | – | –
4 | ACAUGUAAUGCAGGAUAUUUUACACAUGAGGAUCACCCAUGUGACCAGAGGAAUUGCUAUGAGUAGAAGAAGGGUAUGUACAUG [Ex NG2 #56] (Eterna round: R96, puzzle: Exclusion NG 2) | 78.8 | 56.7 | 64.4 | – | – | –
5 | ACAUGUAUUGCAGGAUAUGGGACACAUGAGGAUCACCCAUGUGACUACAUGUCAUACCAAGCGUCUCAGAAGGGUAUGUACAUG [Ex NG2 #38] (Eterna round: R96, puzzle: Exclusion NG 2) | 21.3 | 15.8 | 18.5 | – | – | –
6 | ACAUGUGUUGUAGGAUAUAGGAGACAUGAGGAUCACCCAUGUUGAUUCAUGUCUAUGGAAACGUCCUAGAAGGACGACAAUAUG [Ex NG2 #19] (Eterna round: R96, puzzle: Exclusion NG 2) | 283 | 179 | 272 | – | – | –
7 | ACAUGUUAUGUAGGAUAUUGGACACAUGAGGAUCACCCAUGUACCCGGAGGCUUUACUAUGAGUUCGAGAAGGGUAUGUACAUG [Ex NG2 #69] (Eterna round: R96, puzzle: Exclusion NG 2) | 35.3 | 33.7 | 47.1 | – | – | –
8 | ACCUUACAUGAGGAUCACCCAUGUCAGGAUAUCUCGGACAGCUGAAAACCAGCCGUCCAGAGAAGGGACGAGGA [Tiaza] (puzzle: Exclusion 1) | – | – | – | 12.8 | – | –
9 | ACCUUACAUGAGGAUCACCCAUGUCAGGAUAUCUCGGGCGGCCAAGGGCCGGCCGCCCAGAGAAGGGACGAGGA [Inusla] (puzzle: Exclusion 1) | – | – | – | 12.1 | – | –
10 | ACGAAACAUGAGGAUCACCCAUGUGAGGAUAUGUAAAUACUAGACAAAUAACAGAAAAACAGAAGGCACUCAGA [JR_Exclusion1_Sub003] (puzzle: Exclusion 1) | – | – | – | 22 | – | –
11 | ACGAGGAUUACAGGAUAUGAAGCUAAAACGGCGUUAGAAGGGUAUACAGAGUUACAUGAGGAUCACCCAUGUUGUGAUUUCGAA [AK ExNG1-V2-4.1] (Eterna round: R96, puzzle: Exclusion NG 1) | 158 | 115 | 134 | – | – | –
12 | ACGAUGACCGAAAAGUGUCAACUGACAUGAGGAUCACCCAUGUAGGAUAUGGCUACGAAAAGUAGUCAGAAGGACAAGUCAUCA [Omei Exc(NG) 3 Av5] (Eterna round: R96, puzzle: Exclusion NG 3) | 12.4 | 8.52 | 14 | – | – | –
13 | ACGCGACAUGAGGAUCACCCAUGUGAGGAUAUGGCCUGUUUGUCGUGUGCUGGCUCUGUCAGAAGGCGCGUGGG [salish99_ex1_r4_041] (Eterna round: R97, puzzle: Exclusion 1) | 612 | – | 683 | – | – | –
14 | ACGUAUAGAGGAUAUAGUGAAUAUUACAUGAGGAUCACCCAUGUUCUUCAAAGUAUAUUUCUAGAAGGCUAAUGAA [EX-5 Malc#10] (puzzle: Exclusion 5) | – | – | – | 35.5 | – | –
15 | ACGUGAUAUCUGUCGGUGGACAUGAGGAUCACCCAUGUAAGCUCUUUGCUCGUCUUAUAACCCGGUGACAGACCUUC [Xerile] (puzzle: Sensor v3, turn-off variant 1) | – | – | – | 322 | 42.3 | 52.8
16 | ACGUUAGGAGGAUAUAGAAUUUUAGACAUGAGGAUCACCCAUGUCCUAUGUCAUGAGAGGCUAGAAGGCCUAGUUU [Eternabot (L2) Solution 51] (Eterna round: R97, puzzle: Exclusion 5) | 142 | – | 29.4 | – | – | –
17 | ACUAGAUGAGGAUAUGCAUAUUUUCGUGUUCUUCUAGAUUAACAUGAGGAUCACCCAUGUAGAAGGCGUCUGGA [Exclusion 2 - 18] (puzzle: Exclusion 2) | – | – | – | 17.6 | – | –

Row | Sequence | apparent KD of MS2 coat protein (input ligand: FMN 200 uM) [nM] | apparent KD of MS2 coat protein [1] [nM] | apparent KD of MS2 coat protein (input ligand: none) [nM] | apparent KD of MS2 coat protein [2] [nM] | apparent KD of MS2 coat protein [3] [nM] | apparent KD of MS2 coat protein [4] [nM]
18 | ACUAUUAGAGGAUAUACAGUUUAUUACAUGAGGAUCACCCAUGUUCUUCAAUGUAUAUAAGUAGAAGGCUAAGGAA [EX-5 Malc#3] (puzzle: Exclusion 5) | – | – | – | 45.9 | 114 | 38.2
19 | ACUCACGCAGGAUAUACAUGAGGAUCACCCAUGUUCAAAGGGCGCGGGAACAUCGUCUGUAGAAGGGCGAACAU [jl-ex3-4.62 ViennaUCT mod] (Eterna round: R97, puzzle: Exclusion 3) | 40.4 | – | 29 | – | – | –
20 | ACUGGAUGCAAGCAGGUCCACAUGAGGAUCACCCAUGUUCGUCGGCCAGCAUCGGCUUCUACCGCAAGCCGCGUGCA [Eternabot (L1) Solution 27] (Eterna round: R97, puzzle: Sensor, turn-off variant 1) | 15.9 | – | 18.8 | – | – | –
21 | ACUUACUGAGGAUAUACAUAGAUUUACAUGAGGAUCACCCAUGUUCCUCUUUGUAUAAAUGUAGAAGGCAGAAGAA [Mat - Exclusion 5 - JL Mod - D58] (Eterna round: R97, puzzle: Exclusion 5) | 177 | – | 93.6 | – | – | –
22 | ACUUACUGAGGAUAUACUUAGAUUUACAUGAGGAUCACCCAUGUUCCUCUAUGUAUAUAUGUAGAAGGCAGAAGUA [Mat - Exclusion 5 - JL Mod - D50] (Eterna round: R97, puzzle: Exclusion 5) | 252 | – | 38 | – | – | –
23 | AGAAAACAUGAGGAUCACCCAUGUGAGGAUAUCGCGCUUAACAGGGUCACAGUGGUGUCGAGAAGGUGCCUGGG [Eternabot (L1) Solution 55] (Eterna round: R97, puzzle: Exclusion 1) | 144 | – | 66.3 | – | – | –
24 | AGAAAGGUAGGAUAUACGAAAAAAAAGGGUAGAAAAAAAACACAUGAGGAUCACCCAUGUAGAAGGACCAAAGA [Mat - Exclusion 2 - Tesla mod - D31] (Eterna round: R96, puzzle: Exclusion 2) | – | 27.6 | – | – | – | –
25 | AGAAGUAGAAACCGAUCCUACAUGAGGAUCACCCAUGUAGCAAGACGUGCACGCGAAGCUCGUCAGACUACCAGAGG [salish99_TOv1_r3_018] (puzzle: Sensor v3, turn-off variant 1) | – | – | – | 124 | 316 | 50.1
26 | AGAGUACAUGAGGAUCACCCAUGUCAGGAUAUGCAGAAGAAGAAGAAGAGAAGAGAGAGCAGAAGGGACAAGAG [Ex 1 M2] (puzzle: Exclusion 1) | – | – | – | 26.2 | 41.1 | 29.4
27 | AGAGUGCUGCGAGGAUAUACAUGAGGAUCACCCAUGUAAAAGUGUGAGGCUUUGCCUCACACUAUGUAGAAGGCGCAGUACUCA [Mat - Exclusion NG 2 - Mod of JL - D10] (Eterna round: R96, puzzle: Exclusion NG 2) | 17.6 | 9.4 | 13.4 | – | – | –
28 | AGAGUGCUGCGAGGAUAUACAUGAGGAUCACCCAUGUAAUCGUGUGAGGCAAAGCCUCACACGAUGUAGAAGGCGCAGUACUCA [Mat - Exclusion NG 2 - Mod of JL - D24] (Eterna round: R96, puzzle: Exclusion NG 2) | 13.1 | 12.8 | 16.7 | – | – | –
29 | AGAUAGUGGUGAGGAUAUCAGAAUAGAAAGAAAUGAGAAGGCGCACAUGAGGAUCACCCAUGUGAGGUCUUGAGACUACAUGGU [Prohibition 39 - Jieux - Exclusion NG 1] (Eterna round: R96, puzzle: Exclusion NG 1) | – | 15.7 | – | – | – | –
30 | AGAUCCUGAGUCAGGAUAUAGAGACGGUAGUCGGGCUAGAAGGGACAUGAGGAUCACCCAUGUGGGUUCUUGCC [Rilalera] (puzzle: Brourd's mod of Exclusion 4) | – | – | – | 10.1 | – | –
31 | AGAUCGUCAGGAUAUACAUGAGGAUCACCCAUGUGUAGUUCCAAUUGGACUACAACAUGUAGAAGGGACGAUCG [Exclusion 3 (MOD1 of #1 Marzena11)] (Eterna round: R97, puzzle: Exclusion 3) | 1060 | – | 675 | – | – | –
32 | AGAUCUAGGACAGGAUAUACAGAUGGCUUCAUCGAAGAUGAAGCCAUCACAUGAGGAUCACCCAUGUAGAAGGGUCCUAGAUCA [Omei Exc(NG) 2Av4] (Eterna round: R96, puzzle: Exclusion NG 2) | 19.2 | 9.47 | 13.2 | – | – | –
33 | AGAUGACUGGAGGAUAUCCGAUGCUUCCUGCCAGGAGAAGGCCGGACAUGAGGAUCACCCAUGUGGUGAGCUCG [Vezaatinle] (puzzle: Exclusion 6) | – | – | – | 347 | 329 | 444
